In US12325756:
Values belong to the binder of their own block, whether it stands above or below them.

What was measured:
[1] = target: human mesothelin on tumor cells (C30-M, C30M/F, A1847) (human), Q13421; test: cell-based or functional assay
[2] = target: human alpha-folate receptor on tumor cells (C30-F, C30M/F, A1847) (human), P15328; test: cell-based or functional assay
Chain of human alpha-folate receptor on tumor cells (C30-F, C30M/F, A1847) (human), P15328 (P15328 25-234, stated change not applied): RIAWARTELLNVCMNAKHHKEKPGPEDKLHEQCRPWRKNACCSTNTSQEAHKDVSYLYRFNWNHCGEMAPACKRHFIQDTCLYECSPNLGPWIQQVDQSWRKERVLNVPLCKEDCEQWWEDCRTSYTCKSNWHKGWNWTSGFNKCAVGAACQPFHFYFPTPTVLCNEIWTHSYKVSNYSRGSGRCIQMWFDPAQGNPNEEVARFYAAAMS

Chain of human mesothelin on tumor cells (C30-M, C30M/F, A1847) (human), Q13421 (Q13421 other isoform, or with tags, fused parts or gaps C30M C30M): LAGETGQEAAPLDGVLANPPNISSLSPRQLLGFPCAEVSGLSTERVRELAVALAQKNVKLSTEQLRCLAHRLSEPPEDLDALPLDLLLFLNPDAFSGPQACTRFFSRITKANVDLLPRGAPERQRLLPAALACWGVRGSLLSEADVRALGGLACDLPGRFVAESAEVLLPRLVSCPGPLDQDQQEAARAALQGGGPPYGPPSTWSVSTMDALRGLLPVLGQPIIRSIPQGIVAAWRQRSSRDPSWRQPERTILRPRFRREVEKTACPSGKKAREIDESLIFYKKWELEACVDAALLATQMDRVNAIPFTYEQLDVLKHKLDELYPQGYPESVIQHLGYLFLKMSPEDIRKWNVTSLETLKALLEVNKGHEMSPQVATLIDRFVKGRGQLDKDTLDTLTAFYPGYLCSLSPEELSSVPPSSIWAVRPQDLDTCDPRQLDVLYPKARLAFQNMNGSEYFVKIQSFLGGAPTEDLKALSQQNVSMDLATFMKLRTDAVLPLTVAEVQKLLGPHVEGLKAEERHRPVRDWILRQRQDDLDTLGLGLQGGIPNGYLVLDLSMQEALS

- apoptosis (annexin V / 7-AAD) after 3 days with A1847 [1]: 34%
B1: P4-z anti-mesothelin chimeric antigen receptor (P4 scFv - CD8a hinge and transmembrane region - CD3z) (protein)
chain: GSQVQLQQSGPGLVTPSQTLSLTCAISGDSVSSNSATWNWIRQSPSRGLEWLGRTYYRSKWYNDYAVSVKSRMSINPDTSKNQFSLQLNSVTPEDTAVYYCARGMMTYYYGMDVWGQGTTVTVSSGILGSGGGGSGGGGSGGGGSQPVLTQSSSLSASPGASASLTCTLRSGINVGPYRIYWYQQKPGSPPQYLLNYKSDSDKQQGSGVPSRFSGSKDASANAGVLLISGLRSEDEADYYCMIWHSSAAVFGGGTQLTVLSASTTTPAPRPPTPAPTIASRPLSLRPEACRPAAGGAVHTRGLDFACDIYIWAPLAGTCGVLLLSLVITLYCRVKFSRSADAPAYQQGQNQLYNELNLGRREEYDVLDKRRGRDPEMGGKPRRKNPQEGLYNELQKDKMAEAYSEIGMKGERRRGKGHDGLYQGLSTATKDTYDALHMQALPPR

- apoptosis (annexin V / 7-AAD) after 3 days with A1847 [2]: 0.5 to 1%
B2: MOV19-28 (F-28) costimulatory-only anti-aFR chimeric antigen receptor (MOv-19 scFv - CD8a hinge - CD28 transmembrane - CD28 intracellular domain) (protein)
chain: GSSRAAQPAMAQVQLQQSGAELVKPGASVKISCKASGYSFTGYFMNWVKQSHGKSLEWIGRIHPYDGDTFYNQNFKDKATLTVDKSSNTAHMELLSLTSEDFAVYYCTRYDGSRAMDYWGQGTTVTVSSGGGGSGGGGSGGGGSDIELTQSPASLAVSLGQRAIISCKASQSVSFAGTSLMHWYHQKPGQQPKLLIYRASNLEAGVPTRFSGSGSKTDFTLNIHPVEEEDAATYYCQQSREYPYTFGGGTKLEIKRAAASTTTPAPRPPTPAPTIASQPLSLRPEACRPAAGGAVHTRGLDFACDFWVLVVVGGVLACYSLLVTVAFIIFWVRSKRSRLLHSDYMNMTPRRPGPTRKHYQPYAPPRDFAAYRS
